Patent EP4588939A1 (Universitat de Barcelona, dated 2025)

T1: human IL13Rα2 (interleukin-13 receptor subunit alpha-2) (human, UniProt Q14627 27-380)
T1 construct: whole, on cells; also called IL13Ra2
T1 sequence (looked up): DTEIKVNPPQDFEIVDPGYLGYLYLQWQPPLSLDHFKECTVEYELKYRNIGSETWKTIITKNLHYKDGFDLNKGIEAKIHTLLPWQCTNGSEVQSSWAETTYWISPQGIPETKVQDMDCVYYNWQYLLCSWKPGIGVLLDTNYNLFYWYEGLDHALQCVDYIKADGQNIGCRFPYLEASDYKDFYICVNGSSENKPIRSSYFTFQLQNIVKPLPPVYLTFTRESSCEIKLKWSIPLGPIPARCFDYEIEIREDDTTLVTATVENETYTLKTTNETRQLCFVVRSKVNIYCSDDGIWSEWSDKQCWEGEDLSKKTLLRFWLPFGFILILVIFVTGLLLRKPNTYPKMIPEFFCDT


target: T1, human IL13Rα2 (interleukin-13 receptor …); experiment: flow cytometry of hybridoma supernatants on IL13Rα2-transfected 300.19 cells; specificity further validated on IL13Rα2-transfected COS cells and U251 cells

| Binder | binding result |
| --- | --- |
| 46A murine anti-IL13Rα2 monoclonal antibody (antibody, V domains shown, Tested as hybridoma supernatant; also called IL13Rα2_46A; clone 46A) VH: QVQLKQSGPGLVQPSQSLSITCTVSGFSITKYGVHWVRLSPGKGLEWLGVIWSGGSTDYNAAFISRLNISKDNSKSQVFFKMNSLQANDTAIYYCARDFGDTMDYWGQGTSVTVSS VL: QIVLTQSPAIMSASLGERVTMTCTASSSVTSSYLHWYQQKPGSSPKLWIFSTSNLASGVPARFSGSGSGTSYSLTISSMEAEDAATYYCHQYHRSPLTFGAGTKLELK | binds |
| 82B murine anti-IL13Rα2 monoclonal antibody (antibody, V domains shown, Tested as hybridoma supernatant; also called IL13Rα2_82B; clone 82B) VH: QVQLKQSGPGLVQPSQSLSITCTVSGFSLTSYGVHWVRQSPGKGLEWLGVIWSGGSTDYNAAFISRLSISKDNSKSQVFFKMNSLQANDTAIYYCARDRYDAFDYWGQGTTLTVSS VL: QIVLTQSPAIMSASLGERVTMTCTASSSVSSSYLHWYQQKPGSSPKLWIYSTSNLASGVPARFSGSGSGTSYSLTISSMEAEDAATYYCHQYHRSPLTFGAGTKLELK | binds |

Results, then the binder that gave them:

| binding result | Binder |
| --- | --- |
| binds | 6A murine anti-IL13Rα2 monoclonal antibody (antibody, V domains shown, Tested as hybridoma supernatant; also called IL13Rα2_6A; clone 6A) VH: EVQLQQSGPELVKPGASVKISCKTSGYTFTEYTMHWVKQSHGKSLEWIGIINPNNGGTNYNQKFKGKATLTVDKSSSTAYMELRSLTSEDSAVYYCARPSATHYFDYWGQGTTLTVSS VL: DIKMTQSPSSMYASLGERVTITCKASQDIKSYLSWFQQKPGKSPKTLIYRANRLVDGVPSRFSGSGSGQDYSLTISSLEYEDMGIYYCLQYDEFPLTFGAGTKLELK |
| binds | 143A murine anti-IL13Rα2 monoclonal antibody (antibody, V domains shown, Tested as hybridoma supernatant; also called IL13Rα2_143A; clone 143A) VH: DVQLVESGGGLVQPGGSRKLSCAASGFTFSSFGMHWVRQAPEKGLEWVAYISSGSSTIYYADTVKGRFIISRDNPKNTLFLQMTSLRSEDTAMYYCARKYEGYAMDYWGQGTSVTVSS VL: DIKMTQSPSSMYASLGERVTITCKASQDINSYLSWFQQKPGKSPKTLIYRANRLVDGVPSRFSGSGSGQDYSLTISSLEYEDMGIYSCLQYDEFPLTFGAGTKLELK |
